We go through 4 molecules from US20190153103A1 (AbbVie / Abbott, published 2019).

Numbering of substitutions follows the chain as printed.

To fix the notation:
T1: BMP4-his (human, UniProt P12644 293-408, limits assumed)
T1 construct: not shown: his tag
T1 sequence (looked up): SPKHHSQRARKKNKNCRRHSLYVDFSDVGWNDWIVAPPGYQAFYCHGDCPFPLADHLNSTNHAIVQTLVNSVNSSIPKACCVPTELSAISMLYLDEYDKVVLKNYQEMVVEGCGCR

T2: hBMPR1B-His (human BMPR1B extracellular domain, residues K14 to R126, with C-terminal 9x-Histidine tag) (human, UniProt O00238 14-126)
T2 construct: Residues K14-R126 are counted on the hBMPR1B ORF (NM_001203); The IgK signal peptide of the vector is left out; also called hBMPR1B-CHis; human BMPR1B-his
T2 sequence: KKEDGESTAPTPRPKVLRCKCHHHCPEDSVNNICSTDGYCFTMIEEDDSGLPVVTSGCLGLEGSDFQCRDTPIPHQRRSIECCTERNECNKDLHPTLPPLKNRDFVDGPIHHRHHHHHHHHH

T3: rat-his
T3 construct: soluble analyte of the Biacore runs; also called rSCRx91-his; rBMPR1B-CHis
T3 chain: T2 sequence with P12A, L51T, N102D, R113K

B1: hBMPR1B-Fc (human BMPR1B extracellular domain, residues K14 to R126, fused to human IgG2 Fc) (Fc fusion)
chain: KKEDGESTAPTPRPKVLRCKCHHHCPEDSVNNICSTDGYCFTMIEEDDSGLPVVTSGCLGLEGSDFQCRDTPIPHQRRSIECCTERNECNKDLHPTLPPLKNRDFVDGPIHHR
notes: also called BMPR1B fused to human Fc fragment; not shown: human IgG2 Fc protein
B2: SC91.3 (murine anti-BMPR1B antibody) (antibody, V domains shown)
VH: QVQLQQPGAELVKPGASVKLSCKASGYTFTSYWMQWVKQRPGQGLEWIGEIDPSDSYTLYNQKFKGKATLTVDTSSSTAYMQLSSLTSEDSAVYFCARFGYYIEYWGQGTTLTVSS
VL: DVVMTQTPLSLPVSLGDQASISCRSSQSLVHSTGNTYLHWYLQKPGQSPKLLIYKVSNRFSGVPDRFSGSGSGTDFTLKISRVEAEDLGVYFCSQSTHVPFTFGSGTKLEIK
notes: Murine hybridoma antibody
B3: BMP2 fused to a human Fc fragment (Fc fusion, UniProt P12643 283-396, looked up)
chain: QAKHKQRKRLKSSCKRHPLYVDFSDVGWNDWIVAPPGYHAFYCHGECPFPLADHLNSTNHAIVQTLVNSVNSKIPKACCVPTELSAISMLYLDENEKVVLKNYQDMVVEGCGCR
notes: not shown: human Fc fragment
B4: SC91.11 (antibody, V domains shown)
VH: QVQLQQPGAELVKPGASVKLSCKASGYTFTTYWMHWVKQRPGRGLEWIGRIDPNSGGTKYNEKFKSKATLTVDKPSSTACMQLSSLTSEDSAVYYCASRRGDIDVWGTGTTVTVSS
VL: DIVMTQSQKFMSTSVGDRVSVTCKASQNVGTNVFWYQQKPGQSPKALIYAASYRYSGVPDRFTGSGSGTDFTLTISNVQSEDLADYFCQQYDSYPLTFGDGTKLELR

The target in experiment [1] is T1, BMP4-his. Description: SPR, Biacore T200: BMPR1B-Fc captured on anti-human capture chip, BMP4-his injected at 31.3-500 nM, 1:1 model.
Experiment [2] addresses B1. The experiment can be described thus: ELISA. (In an ELISA, binding on a coated surface is turned into a signal by an enzyme label.)
The target in experiment [3] is T2, hBMPR1B-His (human BMPR1B extracellular …). The experiment can be described thus: ELISA.
For experiment [4], the target named is T4, irrelevant Fc-tagged protein.
T4 construct: ELISA control; also called irrelevant Fc construct
Description: ELISA.

The target of experiment [5] is T5, BMPR1A-Fc (recombinant protein used in the screen 1 ELISA) (human, UniProt P36894 24-152, limits assumed).
T5 construct: also called human BMPR1A; not shown: Fc
The experiment can be described thus: ELISA.

Experiment [6] addresses T6, human BMPR1B overexpressed on the surface of HEK293T cells (N-terminal Asp-Lys epitope tag, … (human, UniProt O00238 14-502)).
T6 construct: also called HEK293T cells overexpressing hBMPR1B; BMPR1B-expressing HEK293T cells
Description: flow cytometry. (Flow cytometry measures light scatter and fluorescence of single cells or particles in a stream.)

Experiment [7] concerns the target T7, rat BMPR1B overexpressed on the surface of HEK293T cells (N-terminal Asp-Lys epitope tag, … (rat, UniProt A0A8I6A0G0 62-550)).
T7 construct: whole, on cells
The experiment can be described thus: flow cytometry.

The target in experiment [8] is T3, rat-his. The experiment can be described thus: Biacore, 200 nM. For orientation: Surface plasmon resonance follows binding to a sensor surface in real time, without labels.
The target of experiment [9] is T2, hBMPR1B-His (human BMPR1B extracellular …). The experiment can be described thus: Biacore.
Experiment [10] concerns the target T8, Cyno-his (cynomolgus).
T8 construct: extracellular domain; soluble analyte of the Biacore runs; also called cSCRx91-his; cBMPR1B-CHis
The experiment can be described thus: Biacore.

Experiment [11] addresses T6, human BMPR1B overexpressed on the …. Description: cell-based or functional assay.
Experiment [12] has as its target T7, rat BMPR1B overexpressed on the surface …. Description: cell-based or functional assay.
The target in experiment [13] is T2, hBMPR1B-His (human BMPR1B extracellular …). The experiment can be described thus: SPR, Biacore T200: BMP2-Fc captured on anti-human capture chip, BMPR1B-his injected at 2.5-40 µM, 1:1 model.

T6 sequence (O00238 14-502): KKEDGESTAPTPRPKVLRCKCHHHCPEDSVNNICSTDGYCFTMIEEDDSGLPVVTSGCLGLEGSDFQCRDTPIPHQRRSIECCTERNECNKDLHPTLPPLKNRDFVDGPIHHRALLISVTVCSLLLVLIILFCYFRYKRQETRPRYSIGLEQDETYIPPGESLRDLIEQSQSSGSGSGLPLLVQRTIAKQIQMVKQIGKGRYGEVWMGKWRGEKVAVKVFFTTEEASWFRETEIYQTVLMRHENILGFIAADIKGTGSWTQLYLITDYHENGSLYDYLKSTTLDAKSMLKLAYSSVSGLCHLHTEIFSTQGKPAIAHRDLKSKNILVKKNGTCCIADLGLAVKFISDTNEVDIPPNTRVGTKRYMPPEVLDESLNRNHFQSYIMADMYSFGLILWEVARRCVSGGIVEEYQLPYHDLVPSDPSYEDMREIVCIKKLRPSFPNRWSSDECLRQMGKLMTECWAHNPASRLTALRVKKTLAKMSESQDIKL
T7 sequence (chain, as listed by the source): as the sequence (O00238 14-502) above, with P12A, L51T, N102D, R113K, T142A, N377T, V397I, I433M counted along it
T5 sequence (P36894 24-152 limits assumed): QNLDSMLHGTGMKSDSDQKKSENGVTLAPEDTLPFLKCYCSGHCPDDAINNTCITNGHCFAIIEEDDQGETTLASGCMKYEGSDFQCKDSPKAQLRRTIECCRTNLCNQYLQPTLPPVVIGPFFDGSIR

As to B1, binding in experiment [1] was put at a Kd of 1.2 nM. This counts as single-digit nanomolar.

For the molecule B2, the ELISA was found to be 0.423 in experiment [2], 0.883 in [3], 0.039 in experiment [4] and 0.035 in experiment [5]. In addition, the entries for the “Flow cytometry MFI” value in experiment [6] and in experiment [7] were 6840 and 5840, respectively. Moreover, the binding result in [8] is “binds”. Moreover, the Kd (usually the equilibrium constant for the complex coming apart) in [9] was determined as 0.163 nM; in experiment [10], 0.503 nM. The “% live, Fab-saporin, 100pM” value in experiment [11] is 9.34%; in experiment [12], 16%.

In turn, B3 came in with a Kd in [13] of 61000 nM.

Turning to B4, the ELISA in experiment [2] worked out at 0.387; in experiment [3], 0.791; in experiment [4], 0.04; in [5], 0.117. Moreover, the “Flow cytometry MFI” value in experiment [6] came to 7330; in [7], 4660. In experiment [8], the binding result was “binds”. The Kd is 1.15 nM in experiment [9] and 11.1 nM in [10]. Besides, the “% live, Fab-saporin, 100pM” value in experiment [11] was 15.5%; in experiment [12] it was 68.7%.
